The values below come from the DeepSol protein solubility set.

A short description of this series: soluble on expression in E. coli; label from the status in PepcDB or PDB records.
For “MSIKEQTLMTPYLQFDRNQWAALRDSVPMTLSEDEIARLKGINEDLSLEEVAEIYLPLSRLLNFYISSNLRRQAVLEQFLGTNGQRIPYIISIAGSVAVGKSTTARVLQALLSRWPEHRRVELITTDGFLHPNQVLKERGLMKKKGFPESYDMHRLVKFVSDLKSGVPNVTAPVYSHLIYDVIPDGDKTVVQPDILILEGLNVLQSGMDYPHDPHHVFVSDFVDFSIYVDAPEDLLQTWYINRFLKFREGAFTDPDSYFHNYAKLTKEEAIKTAMTLWKEINWLNLKQNILPTRERASLILTKSANHAVEEVRLRK”, the “soluble on expression in E. coli” value is recorded as “soluble”.

Regarding “MYDFAIIGSGVAGATLAKELRYRYKVAVIEKGKKPSYASEGKNVEINYVYGLGGSGVYSLGNAIKTEIKGYKIDKDIYKEIWEELKIKAPKDDFLNDIDKAFIELGFEKMEKFIDFDRCNKCGECARKICKAKWTPLNYLKESNANIITEFNIKAINYSNYYEILDDKGRKIKAKNLIISAGGINSPRILKKMIDDENIGKNLFIDTFVTVGGILEDSYLNKDISMLVYKKYKNFMLATHYSKLLINEIKKDYKDVKEKDIVGIMIKIKDENNGVVLDNDVKKEITKEDFKTLARGICKATKYLYKLGVDDIYTTIPRGSHPGGSLSLVVDEFEVREGLYVCDASLFKEALGVPPIVSIIALSKKFVREILLEHHHHHH”, the “soluble on expression in E. coli” value was “not soluble”.

“PESPLRSGRREIANILGVAAQVQRQVAEALRNNNTDGIVDALVRARGTQGQINQMIAAANMGKETIQASPLLWAQRQRIRSMMRILNPVDNAMRNTRVLARRALVLCEDNDEVSGRQIQIIEQLAEVSEDLSNLYYGNSKLSENAEIPRLVNNLKMIGSRTGLEVSEGKVLSAQVVLAQSRSLVVDLLQICGQSRRSAVEILSPTSMHPASVKEIWNDDV”: the “soluble on expression in E. coli” value was “not soluble”.

For the sequence “MGSDKIHHHHHHMNLPLNVAPVAAAPASPIVELRQYTLNPGQRETLIALFDREFIESQEATGMTIIGQFRDLDRPDMFVWLRGFDGMDTRKEALAAFYDGPVWAAHRDAANATMTDSDDVLLLKPAWPSAGFDLSGLQRPVSAEQENSSNENHLGGIVVIRIHHLRSGAETEFASRFAAEAALIMKAHGVRLLAAFASEHAQNSFPRLPVRASENVFLSIARFDSAEAHASQEAALAAAPAWQSFLRAVQLDLTKPTETLRLSPTSRSLVGARFRMPR”, the “soluble on expression in E. coli” value is “not soluble”.

Turning to “MAHHHHHHMVQLTINNARGVTLCRVSLPANATVQQLLLQLTVAKPELRQAQAIRNDVRHVTHRLTPASTTTTTTTSVVSSNAQTLLQAGLVGQGATAETLVVLMAADAPAAASSAAAAAPSPTKAVAAQILDLFGCASASPSAGVRSQASVVPSTMDERQLELQRRIYAQIQQQQIDENLANALEYTPEAFAKVTMLYVPCTINQVLVKAFVDSGAQNSIMNKRTAERCGLMRLVDVRMRGVAVGVGRQEICGRIHMTPVNLAGMYIPFAFYVIEDQAMDLIIGLDQLKRHQMMIDLKHNCLTIDNINVPFLPENDLPALAALGDDENAMHAPRHQDPATTATTASNPAAPVLSEGERQARIEGFMTVSGITDPTQAAELLEAADWNPNVAAALLFDT”, the “soluble on expression in E. coli” value is on record as “soluble”.

Turning to “MTTLQEAYLAFKSAQIIDLTHQINENSPHFPLLPALEKKDLFTLKDGFHIQQFTVVGQYGTHIDAPIHFVEGGAWLDELPLEDLLLPMYVIDKSQAVADNPNYELSKADILAFEEKYGQIEEGAFVAFRSDWSKRWPSQEEFRNLDTAGAQQTPGWSHEALEFLIHERQVKAVGHETFDTDSGQAVAENGKLVEEYYLLDQGIYQLEVLNNLNLLPATGSFISIAYPHWEKATGSPVRAIAYIAQELEHHHHHH”, the “soluble on expression in E. coli” value is recorded as “soluble”.

Take “MTNKISSSDNLSNAVSATDDNASRTPNLNRRALVGGGVGLAARGALASGLQAATLPAGASQVPTTPAGRPMPYAIRPMPEDRRFGYAIVGLGKYALNQILPGFAGCQHSRIEALVSGNAEKAKIVAAEYGVDPRKIYDYSNFDKIAKDPKIDAVYIILPNSLHAEFAIRAFKAGKHVMCEKPMATSVADCQRMIDAAKAANKKLMIGYRCHYDPMNRAAVKLIRENQLGKLGMVTTDNSDVMDQNDPAQQWRLRRELAGGGSLMDIGIYGLNGTRYLLGEEPIEVRAYTYSDPNDERFVEVEDRIIWQMRFRSGALSHGASSYSTTTTSRFSVQGDKAVLLMDPATGYYQNLISVQTPGHANQSMMPQFIMPANNQFSAQLDHLAEAVINNKPVRSPGEEGMQDVRLIQAIYEAARTGRPVNTDWGYVRQGGY”: the “soluble on expression in E. coli” value was “soluble”.

As for “MTKHVAVLLAHGFEEAEAVIFIDIMRRLDIRVDILSCEATTALSTYFETPISADALLSDRLDHHYDAVMMPGGPKGTDSLTANPQVIAFLRRHIAQDKYICALCSSGAKVLAAHHLLAGRTYSTGDKLADKFADGAYLDQDVVVDGKFITAKGLGVSFEFAFTVARHLLSDNLPKVEHQASHIYFKHGSAQT”, the “soluble on expression in E. coli” value was “not soluble”.

Turning to “MIQPVAVIGAGPFGLSTAAHLRARGIPVRVFGDPMVSWRDHMPAGMLLKSTPAASTIDAPQRGHRLVDYCDAAGIARLVTDEDIIPVETFIGYGRWFQEQLVPGLEQVRVVSVDRKAGGGFELKLDSGELFTARAVVVATGLSGLAHLPAELAGAAVDGPTPTGPVSHSSQHHDLSRFAGKELVVVGAGQSALETAALAAEAGAHVRVVSRGRGRVSFGAPPWKQPRLRPESPFGRAWSLWALSYYPHPYRYLPAEARHYLVRRVLGPLGAWWLRDRFEGKVEVREVASVARAHASEGSPVLTLRTHGGRTQELPADHVIAATGYRVDIAAMDFLGHELRTELVVSRGTPKLGAGFRSSVPGLYFTGLPAAASYGPVMRFVCGTEFASPRLAKHLAGAHGLEHHHHHH”, the “soluble on expression in E. coli” value is on record as “not soluble”.

In the case of “MGSDKIHHHHHHMAKFDNHPTVRWWREQSTNNPKTSTVALNSDSLRTLCLDAGADDVGFVEIYRPAIADQHAEILAVFPPTKTLISFVCCMNRESVRTPARSIANLEFHANYDHADEVARNLVKAFAQIGVRALNPSVAFPMEMDRYPDKKAWIISHKPVAVEAGLGHIGIHRNVIHPKFGNFIALGTVLIDTEVTEYAHPINYNPCIECKLCVAACPVGAIGADGSFSFSACYTHNYREFMGGFTDWTETIADSKSASDYRKKVSASESASMWQSLSFKPNYKAAYCIAACPAGEDVIAPFLSDRKAFIKDVVKPLQDKTETIYVVPGSDAENYVVKHFPNKTVKLVSSGIRPQSIQGFLFGLPLLFQRNQSEGLSAIYHFTFTGSESRRATVTIQNKMVRVQEGHLGKANISVTADSKTWLGFLGKEQNLIWALLRCKIRVSGSLKLLQAFGKCFPTCNIH”, the “soluble on expression in E. coli” value is given as “not soluble”.

“DDLIEGYLSSEEYYHEESARYIQKFSKYVSENELSTSDRKAFGEWVKKENYINLTIFKDQELQYDSIYSESDYGKEKLTQYAQNHSHPVKFSDGEGRVIIDGFYSSRYYD”: the “soluble on expression in E. coli” value is “not soluble”.

In the case of “MGHHHHHHSHMLDVYACHCTLCQKWSGGIAMYLEACGQPQLAPLSPEPPYFSSSSRGERYFCSGCGCPLWFRLTDTDRYFIPWTLLELNEVDRRRLILAAEIYTETQPAFWRLTGQYARLSGKEVEEMDSPCQLAH”, the “soluble on expression in E. coli” value is reported as “not soluble”.

Regarding “MSLIGKHFIITGATSGLGFAITNELLQRGAHVTILARNIDKFNRIKENYFKPEHINVIKCDLMQRKDIESLQKFLNTPINGFIYSSGVGYFKSISEHSTREVVETYEVNLTNFNLLYKVIQPQLVKAAYIVGISSQAALVSQANAAHYGASKAGFSAVLNALRLEQPELKVLNVQPGPIDTPFQKNADPTLKYFKNYRHMMIQPQQLAKQIVEGIILNKIEINQPSWMQEGHHHHHH”, the “soluble on expression in E. coli” value is reported as “not soluble”.

For the sequence “GPGSMPADKSYALKQVQTFGKKKTAIAVATVTKAAQCNIKVNGVPLQQILPDTLRAKIMEAITVVGSKYYSRLRIDVAVHGGGQVSQAYAARQAIAKGLIAFFQKYHNEVEKAALKDKFLAYDKFLLIADPRRCEPKKWGRHSARTRFTKSYR”, the “soluble on expression in E. coli” value is reported as “soluble”.

Turning to “MGSDKIHHHHHHMAVELRYDEEAVFLRRVNRFVVEVKSSRGVVRCHLMDTGRIDHLASPGRRGVLIAWLNRLGGKTVCRAQAFKTAGGVVAVVDSRVPNRLFAEAAPMVVGGDASIEAEREVFGSRLDFLISTGRGLWAVEVKGVNLSLDGVGLFPNAPSARAVKHLEVLARLAREGVKPLMAFVALRPDIRVFAPNYRVDRRFASLACTLLRRGLVGMVGIRVSIDLEPGVVRIRPVATAPVQCPPLQPGR”, the “soluble on expression in E. coli” value is listed as “not soluble”.

“MQEIQLSPADDLQQALNNSQNGDVITLGPGSYFGNFIISNQVTLRSNNKGEAIIDSQGKGHGLWLKNSQITIENLTITNWGHDLTDQNSGIYSHGKIDNNKVPSLTIRNNILIGDGFGIWLNQADKAIISHNRVKGNLTLRSADRGNGIQVANVTNSHVFLNEVSETRDGVYVISSQNNIIEQNTMHHLRYGIHYMYSYDNTVKNNTAYDTRAGYALMSSRRLTITGNKTTNSEDYGFLLNFITQSTFSHNYVKNVWTKPENKVLGRDGKGLFVYNSGYNTVKHNIIDTAEIGIHLTAGSENIKIFGNSFINNPTQVKYVSNKKQEWSKDGRGNYWSNYLGWDMGNDGIGDTIFEPNDGIDKLVWQYPEMKMIMDSPAILILRWVQRQFPVLKPPGVKDSFPLMSAPSLTKNEQAATPLAVTTSTFTKSNSAQSANTTSASLKELEHHHHHH”: the “soluble on expression in E. coli” value is recorded as “not soluble”.

In the case of “MGSDKIHHHHHHMNKPERPSHLAAARREPTHYLTADERAAKGRALRDTVPRGSQSGWQAPEDRRDPIELLNESNAGRILDLVPIRYGRMAASPFAFYRGSASLMAADLATTPSSGIRVQACGDAHLMNFGGFATPERNIIFDINDLDETLPAPFEWDLKRLAASLAIAAEHLALPKSDAARVVTDVVREYRERMFNYGWMRALDVWYDRIDLQKYEDRSGDPEIVAAARKRLAQRIEGERRKTVPDYLYPKLVSEEGAKPRIKDEPPLIFHPTEELAPGMGSDYAQAIASYRSSLAEHVRVLFDRFHFFDMAIKVVGVGSVGTMCGVGLFLAADNDPLFLQVKEARASVLEPYAGKSLHANHGERVIAGQRLMQAASDVFLGWTRGENGRDFYLRQLRDMKLSAVIEDWDTGMLRQYGRMCAHALARAHARSGDAAMMAGYMGSGQAFDDAICEFATEYCSQNRSDFRTFVAAIREGRIEARLEAN”, the “soluble on expression in E. coli” value is “not soluble”.

For “MSLNKQDKKWRVLVVDDDADVLTNTVYTLMDLKVLGRELDITTLGSATAAIELLERERDFAVILLDVVMEKPHAGLSLVTMIRHDFNMQMSRIILRTGNPGYAPERDITLKLEIDDYILKQTAVRDRIITAVIVAIRAYDQLQRLARLKDAMQQIICCSNQLLTTDEIDQFANVCMQYVAPIFGKNAGGGLAYAGMTVNQGIVPLTVMSATSEHESLIEPLNGEGHHHHHH”, the “soluble on expression in E. coli” value is “not soluble”.

In the case of “FEAQKAKANKAVDGGGGSLVPRGSGGGGSERHFVYQFMGECYFTNGTQRIRYVTRYIYNREEYVRYDSDVGEHRAVTELGRPDAEYWNSQPEILERTRAELDTVCRHNYEGPETHTSLRRLEQPNVVISLSRTEALNHHNTLVCSVTDFYPAKIKVRWFRNGQEETVGVSSTQLIRNGDWTFQVLVMLEMTPRRGEVYTCHVEHPSLKSPITVEWKA”, the “soluble on expression in E. coli” value is reported as “soluble”.

Turning to “EAVIVVDERDVVIDLNPQAKAIIGTPGAAWIGRPLEDVLPGLIELRDSPTDDIPDRAEITVPVNGEERAYEVRQTPLHRGYGTVTGQLITLTD”, the “soluble on expression in E. coli” value is listed as “not soluble”.

As to “MFPILETDRLILRQITDQDAEAIFACFSNDEVTRYYGLENMESIEQAISMIQTFAALYQEKRGIRWGIERRDTKELIGTIGFHALAQKHRRAEIGYEIIPEHWRNGFASEVISKVVSYGFSALGLSRIGAVVFTDNEASNRLLLKMGFQKEGVLRQYMYSKWDSI”, the “soluble on expression in E. coli” value is “not soluble”.

Regarding “MGHHHHHHSHMILEIRTKNFIFRTKHKLDFTPIGCDAKGRIVLGYTEAELCTRGSGYQFIHAADMLYCAESHIRMIKTGESGMIVFRLLTKNNRWTWVQSNARLLYKNGRPDYIIVTQRPLTDEEGTEHLRKRNTKLPFMF”, the “soluble on expression in E. coli” value was “soluble”.
